Reference: PMC7737734

Key:
[1] = target: ZIKV full-length envelope protein E with A264C, as displayed on virus-like particles (VLP-cvD) (Zika virus (strain PE243)); assay: non-reducing SDS-PAGE and Western blot of a disulfide-linked dimer; purified VLPs on SDS-PAGE under reducing (DTT) or nonreducing conditions, E detected with the monoclonal antibody DIII-1B
[2] = target: ZIKV soluble envelope protein E, covalently stabilized dimer (sE-cvD), A264C, V5-tagged (Zika virus (strain ArD158095)); assay: non-reducing SDS-PAGE of a disulfide-linked dimer; purified sE proteins on 10% SDS-PAGE under reducing (DTT) and nonreducing conditions, gel stained with InstantBlue

With “ZIKV full-length envelope protein E with A264C, as displayed on virus-like particles (VLP-cvD) (natural protein)” the stoichiometry N [1] was 2.
“ZIKV soluble envelope protein E, covalently stabilized dimer (sE-cvD), A264C, V5-tagged (domain or fragment)” showed a stoichiometry N [2] of 2.
